Source: patent publication US20230406885A1, “CYCLIC PEPTIDES FOR TRAPPING INTERLEUKIN-1 BETA” (MERCK SHARP & DOHME LLC, priority 2022, published 2023)
*1 amine or outer side, *2 acyl side, *3 side chain or, on linkers, in order; H or OH if unused. Primed or numbered codes have the meaning given here. [ ]: non-standard residue; d: D form. TyrEtNAc = L-tyrosine O-ethyl acetamide, (S)-3-(4-(2-acetamidoethoxy)phenyl)-2-aminopropanoic acid, CC(=O)NCCOc1ccc(C[C@H](N[*:1])C(=O)[*:2])cc1; AEF′ = (S)-2-amino-3-(6-(2-aminoethoxy)pyridin-3-yl)propanoic acid, O=C([C@H](Cc1ccc(OCCN[*:3])nc1)N[*:1])[*:2]; Ala(piperidin-4-yl) = O=C([C@H](CC1CCN([*:3])CC1)N[*:1])[*:2]; Pro(trans-4-NH2) = O=C([C@@H]1C[C@@H](N[*:3])CN1[*:1])[*:2]; Trp(βS-Me,4-F) = C[C@@H](c1c[nH]c2cccc(F)c12)[C@H](N)C(=O)O; Bip(4'-COOH) = N[C@@H](Cc1ccc(-c2ccc(C(=O)O)cc2)cc1)C(=O)O; Phe(4-COOH) = N[C@@H](Cc1ccc(C(=O)O)cc1)C(=O)O; hTyr = N[C@@H](CCc1ccc(O)cc1)C(=O)O; hPhe = N[C@@H](CCc1ccccc1)C(=O)O; dOrn = NCCC[C@@H](N)C(=O)O; dDab = NCC[C@@H](N)C(=O)O; dNMeA = CN[C@H](C)C(=O)O; Dab = NCC[C@H](N)C(=O)O

B1: SEQ ID NO: 165 (Example No. 165) (peptide)
peptide: cyclo([TyrEtNAc]W[Phe(4-COOH)]G[Pro(trans-4-NH2)][Trp(βS-Me,4-F)]D[dNMeA]G[Bip(4'-COOH)]WL[dA][Ala(piperidin-4-yl)])
SMILES: CC(=O)NCCOc1ccc(C[C@@H]2NC(=O)[C@H](CC3CCNCC3)NC(=O)[C@@H](C)NC(=O)[C@H](CC(C)C)NC(=O)[C@H](Cc3c[nH]c4ccccc34)NC(=O)[C@H](Cc3ccc(-c4ccc(C(=O)O)cc4)cc3)NC(=O)CNC(=O)[C@@H](C)N(C)C(=O)[C@H](CC(=O)O)NC(=O)[C@H]([C@@H](C)c3c[nH]c4cccc(F)c34)NC(=O)[C@@H]3C[C@@H](N)CN3C(=O)CNC(=O)[C@H](Cc3ccc(C(=O)O)cc3)NC(=O)[C@H](Cc3c[nH]c4ccccc34)NC2=O)cc1
B2: SEQ ID NO: 168 (Example No. 168) (peptide)
peptide: cyclo([TyrEtNAc]W[Phe(4-COOH)]G[Pro(trans-4-NH2)][Trp(βS-Me,4-F)]D[dNMeA]G[Bip(4'-COOH)]WL[dDab][hTyr])
SMILES: CC(=O)NCCOc1ccc(C[C@@H]2NC(=O)[C@H](CCc3ccc(O)cc3)NC(=O)[C@@H](CCN)NC(=O)[C@H](CC(C)C)NC(=O)[C@H](Cc3c[nH]c4ccccc34)NC(=O)[C@H](Cc3ccc(-c4ccc(C(=O)O)cc4)cc3)NC(=O)CNC(=O)[C@@H](C)N(C)C(=O)[C@H](CC(=O)O)NC(=O)[C@H]([C@@H](C)c3c[nH]c4cccc(F)c34)NC(=O)[C@@H]3C[C@@H](N)CN3C(=O)CNC(=O)[C@H](Cc3ccc(C(=O)O)cc3)NC(=O)[C@H](Cc3c[nH]c4ccccc34)NC2=O)cc1
B3: SEQ ID NO: 167 (Example No. 167) (peptide)
peptide: cyclo([TyrEtNAc]W[Phe(4-COOH)]G[Pro(trans-4-NH2)][Trp(βS-Me,4-F)]D[dNMeA]G[Bip(4'-COOH)]WL[dA][hTyr])
SMILES: CC(=O)NCCOc1ccc(C[C@@H]2NC(=O)[C@H](CCc3ccc(O)cc3)NC(=O)[C@@H](C)NC(=O)[C@H](CC(C)C)NC(=O)[C@H](Cc3c[nH]c4ccccc34)NC(=O)[C@H](Cc3ccc(-c4ccc(C(=O)O)cc4)cc3)NC(=O)CNC(=O)[C@@H](C)N(C)C(=O)[C@H](CC(=O)O)NC(=O)[C@H]([C@@H](C)c3c[nH]c4cccc(F)c34)NC(=O)[C@@H]3C[C@@H](N)CN3C(=O)CNC(=O)[C@H](Cc3ccc(C(=O)O)cc3)NC(=O)[C@H](Cc3c[nH]c4ccccc34)NC2=O)cc1
B4: SEQ ID NO: 171 (Example No. 171) (peptide)
peptide: cyclo([TyrEtNAc]W[Phe(4-COOH)]G[Pro(trans-4-NH2)][Trp(βS-Me,4-F)]D[dNMeA]G[Bip(4'-COOH)]WL[dS][hTyr])
SMILES: CC(=O)NCCOc1ccc(C[C@@H]2NC(=O)[C@H](CCc3ccc(O)cc3)NC(=O)[C@@H](CO)NC(=O)[C@H](CC(C)C)NC(=O)[C@H](Cc3c[nH]c4ccccc34)NC(=O)[C@H](Cc3ccc(-c4ccc(C(=O)O)cc4)cc3)NC(=O)CNC(=O)[C@@H](C)N(C)C(=O)[C@H](CC(=O)O)NC(=O)[C@H]([C@@H](C)c3c[nH]c4cccc(F)c34)NC(=O)[C@@H]3C[C@@H](N)CN3C(=O)CNC(=O)[C@H](Cc3ccc(C(=O)O)cc3)NC(=O)[C@H](Cc3c[nH]c4ccccc34)NC2=O)cc1
B5: SEQ ID NO: 166 (Example No. 166) (peptide)
peptide: cyclo([TyrEtNAc]W[Phe(4-COOH)]G[Pro(trans-4-NH2)][Trp(βS-Me,4-F)]D[dNMeA]G[Bip(4'-COOH)]WL[dA][hPhe])
SMILES: CC(=O)NCCOc1ccc(C[C@@H]2NC(=O)[C@H](CCc3ccccc3)NC(=O)[C@@H](C)NC(=O)[C@H](CC(C)C)NC(=O)[C@H](Cc3c[nH]c4ccccc34)NC(=O)[C@H](Cc3ccc(-c4ccc(C(=O)O)cc4)cc3)NC(=O)CNC(=O)[C@@H](C)N(C)C(=O)[C@H](CC(=O)O)NC(=O)[C@H]([C@@H](C)c3c[nH]c4cccc(F)c34)NC(=O)[C@@H]3C[C@@H](N)CN3C(=O)CNC(=O)[C@H](Cc3ccc(C(=O)O)cc3)NC(=O)[C@H](Cc3c[nH]c4ccccc34)NC2=O)cc1
B6: SEQ ID NO: 163 (Example No. 163) (peptide)
peptide: cyclo([TyrEtNAc]W[Phe(4-COOH)]G[Pro(trans-4-NH2)][Trp(βS-Me,4-F)]D[dNMeA]G[Bip(4'-COOH)]W[Dab][dA][hPhe])
SMILES: CC(=O)NCCOc1ccc(C[C@@H]2NC(=O)[C@H](CCc3ccccc3)NC(=O)[C@@H](C)NC(=O)[C@H](CCN)NC(=O)[C@H](Cc3c[nH]c4ccccc34)NC(=O)[C@H](Cc3ccc(-c4ccc(C(=O)O)cc4)cc3)NC(=O)CNC(=O)[C@@H](C)N(C)C(=O)[C@H](CC(=O)O)NC(=O)[C@H]([C@@H](C)c3c[nH]c4cccc(F)c34)NC(=O)[C@@H]3C[C@@H](N)CN3C(=O)CNC(=O)[C@H](Cc3ccc(C(=O)O)cc3)NC(=O)[C@H](Cc3c[nH]c4ccccc34)NC2=O)cc1
B7: SEQ ID NO: 169 (Example No. 169) (peptide)
peptide: cyclo([TyrEtNAc]W[Phe(4-COOH)]G[Pro(trans-4-NH2)][Trp(βS-Me,4-F)]D[dNMeA]G[Bip(4'-COOH)]WL[dK][hTyr])
SMILES: CC(=O)NCCOc1ccc(C[C@@H]2NC(=O)[C@H](CCc3ccc(O)cc3)NC(=O)[C@@H](CCCCN)NC(=O)[C@H](CC(C)C)NC(=O)[C@H](Cc3c[nH]c4ccccc34)NC(=O)[C@H](Cc3ccc(-c4ccc(C(=O)O)cc4)cc3)NC(=O)CNC(=O)[C@@H](C)N(C)C(=O)[C@H](CC(=O)O)NC(=O)[C@H]([C@@H](C)c3c[nH]c4cccc(F)c34)NC(=O)[C@@H]3C[C@@H](N)CN3C(=O)CNC(=O)[C@H](Cc3ccc(C(=O)O)cc3)NC(=O)[C@H](Cc3c[nH]c4ccccc34)NC2=O)cc1
B8: SEQ ID NO: 170 (Example No. 170) (peptide)
peptide: cyclo([TyrEtNAc]W[Phe(4-COOH)]G[Pro(trans-4-NH2)][Trp(βS-Me,4-F)]D[dNMeA]G[Bip(4'-COOH)]WL[dOrn][hTyr])
SMILES: CC(=O)NCCOc1ccc(C[C@@H]2NC(=O)[C@H](CCc3ccc(O)cc3)NC(=O)[C@@H](CCCN)NC(=O)[C@H](CC(C)C)NC(=O)[C@H](Cc3c[nH]c4ccccc34)NC(=O)[C@H](Cc3ccc(-c4ccc(C(=O)O)cc4)cc3)NC(=O)CNC(=O)[C@@H](C)N(C)C(=O)[C@H](CC(=O)O)NC(=O)[C@H]([C@@H](C)c3c[nH]c4cccc(F)c34)NC(=O)[C@@H]3C[C@@H](N)CN3C(=O)CNC(=O)[C@H](Cc3ccc(C(=O)O)cc3)NC(=O)[C@H](Cc3c[nH]c4ccccc34)NC2=O)cc1

The binders below were run against Recombinant human IL-1β (BioLegend 579404) (human, UniProt P01584 117-269) (assay: cell-based or functional assay).

Binder | MRC5 IC50
B1 | 0.781 nM
B2 | 0.0847 nM
B3 | 0.136 nM
B4 | 0.145 nM
B5 | 0.149 nM
B6 | 0.156 nM
B7 | 0.112 nM
B8 | 0.0966 nM
cyclo([TyrEtNAc]W[Phe(4-COOH)]G[Pro(trans-4-NH2)][Trp(βS-Me,4-F)]D[dNMeA]G[Bip(4'-COOH)]WL[dA][AEF′]) [SEQ ID NO: 164 (Example No. 164)] | 0.459 nM
